The values that follow come from IntAct's records for PubMed 15652484.

In the experiment the target is erp44_mouse Erp44 (UniProt Q9D1Q6).
Sequence of erp44_mouse Erp44 (Q9D1Q6 whole entry): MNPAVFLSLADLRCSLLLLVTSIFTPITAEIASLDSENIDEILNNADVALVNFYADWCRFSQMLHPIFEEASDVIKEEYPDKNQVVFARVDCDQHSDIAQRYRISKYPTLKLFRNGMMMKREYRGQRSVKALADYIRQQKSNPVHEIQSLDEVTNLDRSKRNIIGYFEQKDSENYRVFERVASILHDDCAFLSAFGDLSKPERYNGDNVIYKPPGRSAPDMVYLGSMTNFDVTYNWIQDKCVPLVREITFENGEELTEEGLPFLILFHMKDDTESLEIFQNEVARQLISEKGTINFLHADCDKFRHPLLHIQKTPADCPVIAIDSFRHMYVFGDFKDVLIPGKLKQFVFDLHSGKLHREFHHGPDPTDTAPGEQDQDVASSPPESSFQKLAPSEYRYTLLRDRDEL

Sequence of Inositol 1,4,5-trisphosphate-gated calcium channel ITPR1 (Mus musculus), P11881 C2496S (P11881 whole entry C2496S): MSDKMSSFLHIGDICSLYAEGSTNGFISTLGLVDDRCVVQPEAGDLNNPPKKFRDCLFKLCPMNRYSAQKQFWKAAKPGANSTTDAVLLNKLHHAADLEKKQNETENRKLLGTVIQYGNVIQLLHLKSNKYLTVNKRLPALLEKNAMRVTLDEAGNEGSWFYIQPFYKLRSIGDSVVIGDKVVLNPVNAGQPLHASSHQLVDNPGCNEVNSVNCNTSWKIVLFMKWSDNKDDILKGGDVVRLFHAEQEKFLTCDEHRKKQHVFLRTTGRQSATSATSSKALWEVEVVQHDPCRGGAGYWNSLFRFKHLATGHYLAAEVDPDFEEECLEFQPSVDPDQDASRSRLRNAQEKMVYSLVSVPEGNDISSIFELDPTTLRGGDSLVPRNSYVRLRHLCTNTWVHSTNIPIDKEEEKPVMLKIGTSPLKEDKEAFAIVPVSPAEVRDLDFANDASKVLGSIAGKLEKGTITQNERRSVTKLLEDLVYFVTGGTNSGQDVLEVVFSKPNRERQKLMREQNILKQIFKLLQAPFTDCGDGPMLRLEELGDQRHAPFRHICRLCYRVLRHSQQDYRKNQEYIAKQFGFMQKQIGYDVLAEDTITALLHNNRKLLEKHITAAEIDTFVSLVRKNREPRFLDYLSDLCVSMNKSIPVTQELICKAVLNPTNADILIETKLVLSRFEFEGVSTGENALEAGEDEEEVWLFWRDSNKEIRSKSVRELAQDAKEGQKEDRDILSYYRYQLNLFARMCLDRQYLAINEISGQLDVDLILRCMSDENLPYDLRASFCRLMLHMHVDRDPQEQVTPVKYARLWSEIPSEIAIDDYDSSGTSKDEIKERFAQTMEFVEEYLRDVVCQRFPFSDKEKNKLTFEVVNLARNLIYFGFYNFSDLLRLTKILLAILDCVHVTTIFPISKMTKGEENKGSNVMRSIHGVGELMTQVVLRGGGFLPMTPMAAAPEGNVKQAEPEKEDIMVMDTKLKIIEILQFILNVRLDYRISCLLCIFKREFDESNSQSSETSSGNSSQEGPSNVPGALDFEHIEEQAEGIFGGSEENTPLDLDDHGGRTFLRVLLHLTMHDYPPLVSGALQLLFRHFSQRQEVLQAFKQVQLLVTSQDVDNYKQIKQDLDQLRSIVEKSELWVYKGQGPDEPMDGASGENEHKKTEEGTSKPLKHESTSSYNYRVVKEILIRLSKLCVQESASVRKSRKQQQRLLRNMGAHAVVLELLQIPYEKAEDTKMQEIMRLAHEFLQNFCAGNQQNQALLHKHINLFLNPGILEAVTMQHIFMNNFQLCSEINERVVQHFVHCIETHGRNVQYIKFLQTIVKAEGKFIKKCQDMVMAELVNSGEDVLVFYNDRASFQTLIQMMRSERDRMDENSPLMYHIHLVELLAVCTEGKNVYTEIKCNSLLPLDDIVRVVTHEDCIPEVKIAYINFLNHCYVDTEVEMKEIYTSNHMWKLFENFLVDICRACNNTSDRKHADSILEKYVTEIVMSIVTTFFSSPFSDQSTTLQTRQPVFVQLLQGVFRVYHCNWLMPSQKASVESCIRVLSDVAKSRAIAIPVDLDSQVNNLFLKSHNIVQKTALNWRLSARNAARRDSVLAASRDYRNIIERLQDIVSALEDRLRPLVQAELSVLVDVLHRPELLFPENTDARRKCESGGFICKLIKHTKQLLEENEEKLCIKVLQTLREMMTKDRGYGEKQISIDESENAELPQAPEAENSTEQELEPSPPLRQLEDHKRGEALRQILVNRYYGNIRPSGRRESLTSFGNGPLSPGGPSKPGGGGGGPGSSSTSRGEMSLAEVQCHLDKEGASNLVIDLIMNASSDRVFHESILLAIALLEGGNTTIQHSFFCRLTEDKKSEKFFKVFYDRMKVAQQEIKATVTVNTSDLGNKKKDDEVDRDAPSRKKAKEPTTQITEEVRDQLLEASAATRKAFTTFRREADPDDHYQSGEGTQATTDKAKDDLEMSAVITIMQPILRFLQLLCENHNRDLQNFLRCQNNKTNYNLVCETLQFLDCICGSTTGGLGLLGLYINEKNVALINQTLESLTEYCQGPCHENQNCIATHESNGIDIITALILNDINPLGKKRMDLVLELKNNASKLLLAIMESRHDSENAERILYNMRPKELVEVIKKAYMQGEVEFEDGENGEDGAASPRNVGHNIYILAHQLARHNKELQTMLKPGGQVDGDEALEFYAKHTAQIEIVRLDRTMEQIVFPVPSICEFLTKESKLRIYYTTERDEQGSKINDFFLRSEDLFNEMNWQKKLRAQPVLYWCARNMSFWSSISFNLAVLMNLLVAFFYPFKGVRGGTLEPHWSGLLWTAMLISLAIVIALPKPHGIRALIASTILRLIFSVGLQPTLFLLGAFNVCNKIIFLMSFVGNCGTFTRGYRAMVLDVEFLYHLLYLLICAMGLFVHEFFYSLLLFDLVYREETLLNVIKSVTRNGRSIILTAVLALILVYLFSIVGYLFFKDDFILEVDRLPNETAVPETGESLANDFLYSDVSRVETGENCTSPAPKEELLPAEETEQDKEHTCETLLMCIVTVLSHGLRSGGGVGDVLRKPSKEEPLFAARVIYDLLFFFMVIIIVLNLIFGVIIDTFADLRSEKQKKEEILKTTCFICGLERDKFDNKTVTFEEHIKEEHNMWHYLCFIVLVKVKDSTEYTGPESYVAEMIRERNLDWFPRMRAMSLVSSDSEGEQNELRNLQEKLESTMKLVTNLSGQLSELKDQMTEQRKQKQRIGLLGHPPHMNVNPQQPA

As for “Inositol 1,4,5-trisphosphate-gated calcium channel ITPR1 (Mus musculus), P11881 C2496S”, the “effect of a mutation on the interaction” value is reported as “decreasing interaction”. Under “Inositol 1,4,5-trisphosphate-gated calcium channel ITPR1 (Mus musculus), P11881 C2504S” stands “decreasing interaction”.
